The text below walks through data of doi:10.1101/684480.

Where only a bound is given, the exact number is not on record here.

For assay [1], the target named is kinase-dead BCR-ABL (K271H) (human) (UniProt P11274). Put plainly: native gel or EMSA. In general terms: Mobility shift assays separate free from complexed probe on a gel.
Assay [2] addresses BCR-ABL Y177F (human) (UniProt P11274). Put plainly: native gel or EMSA.
The target in assay [3] is BCR-ABL with deleted DH-PH domains (human) (UniProt P11274). As to the kind of experiment: co-IP.
Assay [4] deals with BCR-ABL with deleted IDR (human) (UniProt P11274). As to the kind of experiment: co-IP.
Assay [5] has as its target BCR-ABL with deleted FABD domain (human) (UniProt P11274). As to the kind of experiment: co-IP.
In assay [6] the target is BCR-ABL Y177F (human) (UniProt P11274). As to the kind of experiment: co-IP.
For assay [7], the target named is BCR-ABL with deleted PH domain (human) (UniProt P11274). As to the kind of experiment: co-IP.
In the next assay the target is p190 BCR-ABL (human) (UniProt P11274). Put plainly: proximity ligation.

In the case of “GRB2 of NIH3T3 cells (from UniProt Q60631 1-217) (natural protein)”, the percent of GRB2 associated (in assay [1]; with BCR-ABL Y177F (human) [2]) was 30% in each case.

“p85a-PI3K, transfected (from UniProt P27986 1-724) (natural protein)”: the decrease of binding against BCR-ABL worked out at 80% in assay [3], 70% in assay [4], 40% in assay [5] and 50% with BCR-ABL Y177F (human) [6].

B1: SHC1, endogenous (natural protein)
chain: MDLLPPKPKYNPLRNESLSSLEEGASGSTPPEELPSPSASSLGPILPPLPGDDSPTTLCSFFPRMSNLRLANPAGGRPGSKGEPGRAADDGEGIVGAAMPDSGPLPLLQDMNKLSGGGGRRTRVEGGQLGGEEWTRHGSFVNKPTRGWLHPNDKVMGPGVSYLVRYMGCVEVLQSMRALDFNTRTQVTREAISLVCEAVPGAKGATRRRKPCSRPLSSILGRSNLKFAGMPITLTVSTSSLNLMAADCKQIIANHHMQSISFASGGDPDTAEYVAYVAKDPVNQRACHILECPEGLAQDVISTIGQAFELRFKQYLRNPPKLVTPHDRMAGFDGSAWDEEEEEPPDHQYYNDFPGKEPPLGGVVDMRLREGAAPGAARPTAPNAQTPSHLGATLPVGQPVGGDPEVRKQMPPPPPCPGRELFDDPSYVNVQNLDKARQAVGGAGPPNPAINGSAPRDLFDMKPFEDALRVPPPPQSVSMAEQLRGEPWFHGKLSRREAEALLQLNGDFLVRESTTTPGQYVLTGLQSGQPKHLLLVDPEGVVRTKDHRFESVSHLISYHMDNHLPIISAGSELCLQQPVERKL
The molecule B1 came in with a decrease of the interaction against BCR-ABL in assay [7] of 70%.

B2: V5-tagged SHIP2 (enzyme)
chain: MASACGAPGPGGALGSQAPSWYHRDLSRAAAEELLARAGRDGSFLVRDSESVAGAFALCVLYQKHVHTYRILPDGEDFLAVQTSQGVPVRRFQTLGELIGLYAQPNQGLVCALLLPVEGEREPDPPDDRDASDGEDEKPPLPPRSGSTSISAPTGPSSPLPAPETPTAPAAESAPNGLSTVSHDYLKGSYGLDLEAVRGGASHLPHLTRTLATSCRRLHSEVDKVLSGLEILSKVFDQQSSPMVTRLLQQQNLPQTGEQELESLVLKLSVLKDFLSGIQKKALKALQDMSSTAPPAPQPSTRKAKTIPVQAFEVKLDVTLGDLTKIGKSQKFTLSVDVEGGRLVLLRRQRDSQEDWTTFTHDRIRQLIKSQRVQNKLGVVFEKEKDRTQRKDFIFVSARKREAFCQLLQLMKNKHSKQDEPDMISVFIGTWNMGSVPPPKNVTSWFTSKGLGKTLDEVTVTIPHDIYVFGTQENSVGDREWLDLLRGGLKELTDLDYRPIAMQSLWNIKVAVLVKPEHENRISHVSTSSVKTGIANTLGNKGAVGVSFMFNGTSFGFVNCHLTSGNEKTARRNQNYLDILRLLSLGDRQLNAFDISLRFTHLFWFGDLNYRLDMDIQEILNYISRKEFEPLLRVDQLNLEREKHKVFLRFSEEEISFPPTYRYERGSRDTYAWHKQKPTGVRTNVPSWCDRILWKSYPETHIICNSYGCTDDIVTSDHSPVFGTFEVGVTSQFISKKGLSKTSDQAYIEFESIEAIVKTASRTKFFIEFYSTCLEEYKKSFENDAQSSDNINFLKVQWSSRQLPTLKPILADIEYLQDQHLLLTVKSMDGYESYGECVVALKSMIGSTAQQFLTFLSHRGEETGNIRGSMKVRVPTERLGTRERLYEWISIDKDEAGAKSKAPSVSRGSQEPRSGSRKPAFTEASCPLSRLFEEPEKPPPTGRPPAPPRAAPREEPLTPRLKPEGAPEPEGVAAPPPKNSFNNPAYYVLEGVPHQLLPPEPPSPARAPVPSATKNKVAITVPAPQLGHHRHPRVGEGSSSDEESGGTLPPPDFPPPPLPDSAIFLPPSLDPLPGPVVRGRGGAEARGPPPPKAHPRPPLPPGPSPASTFLGEVASGDDRSCSVLQMAKTLSEVDYAPAGPARSALLPGPLELQPPRGLPSDYGRPLSFPPPRIRESIQEDLAEEAPCLQGGRASGLGEAGMSAWLRAIGLERYEEGLVHNGWDDLEFLSDITEEDLEEAGVQDPAHKRLLLDTLQLSK
For the molecule B2, in the assay with p190 BCR-ABL (human), the interaction preserved with nilotinib, against active BCR-ABL was > 50%.
